In patent US20100016547A1, “Glycosilated Peptide and Medicine Comprising It as an Effective Ingredient” (priority 2005, published 2010):

Key:
GLP-1 receptor [1] = biological target: GLP-1 receptor
GLP-1 receptor [2] = biological target: GLP-1 receptor; remark: listed apart in the source

EX (peptide)
EC50 (cAMP assay) (GLP-1 receptor [1]): 0.55 nM | IC50 (GLP-1 receptor [2]): 0.1 nM
